B1: Pistol ribozyme (parent)
chain: GGGUCGUUGUUCCAUAAUCGCGUGGAUAUGGCACGCAAGUUUCUACCGGGCACCGUAAAUGUCCGACUGGAGCCGUUCGGGCGGCUAUAAACAGACCUCAGGCCCGAAGCGUGGCGGCACCUGCCGCCGGUGGUAAAAAAGAUCGGAAGAGCACACGUCU

Variants of: B1
Test: aptazyme ON/OFF ratio, guanine; higher = stronger switching; co-transcriptional cleavage with and without guanine

Variant	aptazyme ON/OFF ratio
GGGUCGUAACUUGAUAAUCGCGUGGAUAUGGCACGCAAGUUUCUACCGGGCACCGUAAAUGUCCGACUGGAGCCGUUCGGGCGGCUAUAAACAGACCUCAGGCCCGAAGCGUGGCGGCACCUGCCGCCGGUGGUAAAAAAGAUCGGAAGAGCACACGUCU	1.26
GGGUCGUAACUUUAUAAUCGCGUGGAUAUGGCACGCAAGUUUCUACCGGGCACCGUAAAUGUCCGACUGGAGCCGUUCGGGCGGCUAUAAACAGACCUCAGGCCCGAAGCGUGGCGGCACCUGCCGCCGGUGGUAAAAAAGAUCGGAAGAGCACACGUCU	1.2
GGGUCGUAACUUAAUAAUCGCGUGGAUAUGGCACGCAAGUUUCUACCGGGCACCGUAAAUGUCCGACUGGAGCCGUUCGGGCGGCUAUAAACAGACCUCAGGCCCGAAGCGUGGCGGCACCUGCCGCCGGUGGUAAAAAAGAUCGGAAGAGCACACGUCU	1.17
GGGUCGUAACUAUAUAAUCGCGUGGAUAUGGCACGCAAGUUUCUACCGGGCACCGUAAAUGUCCGACUGGAGCCGUUCGGGCGGCUAUAAACAGACCUCAGGCCCGAAGCGUGGCGGCACCUGCCGCCGGUGGUAAAAAAGAUCGGAAGAGCACACGUCU	1.18
GGGUCGUAACUAGAUAAUCGCGUGGAUAUGGCACGCAAGUUUCUACCGGGCACCGUAAAUGUCCGACUGGAGCCGUUCGGGCGGCUAUAAACAGACCUCAGGCCCGAAGCGUGGCGGCACCUGCCGCCGGUGGUAAAAAAGAUCGGAAGAGCACACGUCU	1.13
GGGUCGUAACUAAAUAAUCGCGUGGAUAUGGCACGCAAGUUUCUACCGGGCACCGUAAAUGUCCGACUGGAGCCGUUCGGGCGGCUAUAAACAGACCUCAGGCCCGAAGCGUGGCGGCACCUGCCGCCGGUGGUAAAAAAGAUCGGAAGAGCACACGUCU	1.19
GGGUCGUAACUCUAUAAUCGCGUGGAUAUGGCACGCAAGUUUCUACCGGGCACCGUAAAUGUCCGACUGGAGCCGUUCGGGCGGCUAUAAACAGACCUCAGGCCCGAAGCGUGGCGGCACCUGCCGCCGGUGGUAAAAAAGAUCGGAAGAGCACACGUCU	1.11
GGGUCGUAACUCGAUAAUCGCGUGGAUAUGGCACGCAAGUUUCUACCGGGCACCGUAAAUGUCCGACUGGAGCCGUUCGGGCGGCUAUAAACAGACCUCAGGCCCGAAGCGUGGCGGCACCUGCCGCCGGUGGUAAAAAAGAUCGGAAGAGCACACGUCU	1.04
GGGUCGUAACUCAAUAAUCGCGUGGAUAUGGCACGCAAGUUUCUACCGGGCACCGUAAAUGUCCGACUGGAGCCGUUCGGGCGGCUAUAAACAGACCUCAGGCCCGAAGCGUGGCGGCACCUGCCGCCGGUGGUAAAAAAGAUCGGAAGAGCACACGUCU	1.06
GGGUCGUAACCAGAUAAUCGCGUGGAUAUGGCACGCAAGUUUCUACCGGGCACCGUAAAUGUCCGACUGGAGCCGUUCGGGCGGCUAUAAACAGACCUCAGGCCCGAAGCGUGGCGGCACCUGCCGCCGGUGGUAAAAAAGAUCGGAAGAGCACACGUCU	1.1
GGGUCGUAACCAAAUAAUCGCGUGGAUAUGGCACGCAAGUUUCUACCGGGCACCGUAAAUGUCCGACUGGAGCCGUUCGGGCGGCUAUAAACAGACCUCAGGCCCGAAGCGUGGCGGCACCUGCCGCCGGUGGUAAAAAAGAUCGGAAGAGCACACGUCU	1.07
GGGUCGUAACCAUAUAAUCGCGUGGAUAUGGCACGCAAGUUUCUACCGGGCACCGUAAAUGUCCGACUGGAGCCGUUCGGGCGGCUAUAAACAGACCUCAGGCCCGAAGCGUGGCGGCACCUGCCGCCGGUGGUAAAAAAGAUCGGAAGAGCACACGUCU	1.02
GGGUCGUAACUGGAUAAUCGCGUGGAUAUGGCACGCAAGUUUCUACCGGGCACCGUAAAUGUCCGACUGGAGCCGUUCGGGCGGCUAUAAACAGACCUCAGGCCCGAAGCGUGGCGGCACCUGCCGCCGGUGGUAAAAAAGAUCGGAAGAGCACACGUCU	1.24
GGGUCGUAACUGAAUAAUCGCGUGGAUAUGGCACGCAAGUUUCUACCGGGCACCGUAAAUGUCCGACUGGAGCCGUUCGGGCGGCUAUAAACAGACCUCAGGCCCGAAGCGUGGCGGCACCUGCCGCCGGUGGUAAAAAAGAUCGGAAGAGCACACGUCU	1.19
GGGUCGUAACUGUAUAAUCGCGUGGAUAUGGCACGCAAGUUUCUACCGGGCACCGUAAAUGUCCGACUGGAGCCGUUCGGGCGGCUAUAAACAGACCUCAGGCCCGAAGCGUGGCGGCACCUGCCGCCGGUGGUAAAAAAGAUCGGAAGAGCACACGUCU	1.22
GGGUCGUAACAUAAUAAUCGCGUGGAUAUGGCACGCAAGUUUCUACCGGGCACCGUAAAUGUCCGACUGGAGCCGUUCGGGCGGCUAUAAACAGACCUCAGGCCCGAAGCGUGGCGGCACCUGCCGCCGGUGGUAAAAAAGAUCGGAAGAGCACACGUCU	1.31
GGGUCGUAACAUGAUAAUCGCGUGGAUAUGGCACGCAAGUUUCUACCGGGCACCGUAAAUGUCCGACUGGAGCCGUUCGGGCGGCUAUAAACAGACCUCAGGCCCGAAGCGUGGCGGCACCUGCCGCCGGUGGUAAAAAAGAUCGGAAGAGCACACGUCU	1.21
GGGUCGUAACAUUAUAAUCGCGUGGAUAUGGCACGCAAGUUUCUACCGGGCACCGUAAAUGUCCGACUGGAGCCGUUCGGGCGGCUAUAAACAGACCUCAGGCCCGAAGCGUGGCGGCACCUGCCGCCGGUGGUAAAAAAGAUCGGAAGAGCACACGUCU	1.33

Variant	aptazyme ON/OFF ratio
GGGUCGUAACACAAUAAUCGCGUGGAUAUGGCACGCAAGUUUCUACCGGGCACCGUAAAUGUCCGACUGGAGCCGUUCGGGCGGCUAUAAACAGACCUCAGGCCCGAAGCGUGGCGGCACCUGCCGCCGGUGGUAAAAAAGAUCGGAAGAGCACACGUCU	1.11
GGGUCGUAACACGAUAAUCGCGUGGAUAUGGCACGCAAGUUUCUACCGGGCACCGUAAAUGUCCGACUGGAGCCGUUCGGGCGGCUAUAAACAGACCUCAGGCCCGAAGCGUGGCGGCACCUGCCGCCGGUGGUAAAAAAGAUCGGAAGAGCACACGUCU	1.07
GGGUCGUAACACUAUAAUCGCGUGGAUAUGGCACGCAAGUUUCUACCGGGCACCGUAAAUGUCCGACUGGAGCCGUUCGGGCGGCUAUAAACAGACCUCAGGCCCGAAGCGUGGCGGCACCUGCCGCCGGUGGUAAAAAAGAUCGGAAGAGCACACGUCU	1.15
GGGUCGUAACAAAAUAAUCGCGUGGAUAUGGCACGCAAGUUUCUACCGGGCACCGUAAAUGUCCGACUGGAGCCGUUCGGGCGGCUAUAAACAGACCUCAGGCCCGAAGCGUGGCGGCACCUGCCGCCGGUGGUAAAAAAGAUCGGAAGAGCACACGUCU	1.16
GGGUCGUAACAAUAUAAUCGCGUGGAUAUGGCACGCAAGUUUCUACCGGGCACCGUAAAUGUCCGACUGGAGCCGUUCGGGCGGCUAUAAACAGACCUCAGGCCCGAAGCGUGGCGGCACCUGCCGCCGGUGGUAAAAAAGAUCGGAAGAGCACACGUCU	1.17
GGGUCGUAACAAGAUAAUCGCGUGGAUAUGGCACGCAAGUUUCUACCGGGCACCGUAAAUGUCCGACUGGAGCCGUUCGGGCGGCUAUAAACAGACCUCAGGCCCGAAGCGUGGCGGCACCUGCCGCCGGUGGUAAAAAAGAUCGGAAGAGCACACGUCU	1.24
GGGUCGUAACAUCAUAAUCGCGUGGAUAUGGCACGCAAGUUUCUACCGGGCACCGUAAAUGUCCGACUGGAGCCGUUCGGGCGGCUAUAAACAGACCUCAGGCCCGAAGCGUGGCGGCACCUGCCGCCGGUGGUAAAAAAGAUCGGAAGAGCACACGUCU	1.19
GGGUCGUAACAGCAUAAUCGCGUGGAUAUGGCACGCAAGUUUCUACCGGGCACCGUAAAUGUCCGACUGGAGCCGUUCGGGCGGCUAUAAACAGACCUCAGGCCCGAAGCGUGGCGGCACCUGCCGCCGGUGGUAAAAAAGAUCGGAAGAGCACACGUCU	1.26
GGGUCGUAACAACAUAAUCGCGUGGAUAUGGCACGCAAGUUUCUACCGGGCACCGUAAAUGUCCGACUGGAGCCGUUCGGGCGGCUAUAAACAGACCUCAGGCCCGAAGCGUGGCGGCACCUGCCGCCGGUGGUAAAAAAGAUCGGAAGAGCACACGUCU	1.31
GGGUCGUAACUUCAUAAUCGCGUGGAUAUGGCACGCAAGUUUCUACCGGGCACCGUAAAUGUCCGACUGGAGCCGUUCGGGCGGCUAUAAACAGACCUCAGGCCCGAAGCGUGGCGGCACCUGCCGCCGGUGGUAAAAAAGAUCGGAAGAGCACACGUCU	1.24
GGGUCGUAACUACAUAAUCGCGUGGAUAUGGCACGCAAGUUUCUACCGGGCACCGUAAAUGUCCGACUGGAGCCGUUCGGGCGGCUAUAAACAGACCUCAGGCCCGAAGCGUGGCGGCACCUGCCGCCGGUGGUAAAAAAGAUCGGAAGAGCACACGUCU	1.15
GGGUCGUAACUGCAUAAUCGCGUGGAUAUGGCACGCAAGUUUCUACCGGGCACCGUAAAUGUCCGACUGGAGCCGUUCGGGCGGCUAUAAACAGACCUCAGGCCCGAAGCGUGGCGGCACCUGCCGCCGGUGGUAAAAAAGAUCGGAAGAGCACACGUCU	1.18
GGGUCGUAACCACAUAAUCGCGUGGAUAUGGCACGCAAGUUUCUACCGGGCACCGUAAAUGUCCGACUGGAGCCGUUCGGGCGGCUAUAAACAGACCUCAGGCCCGAAGCGUGGCGGCACCUGCCGCCGGUGGUAAAAAAGAUCGGAAGAGCACACGUCU	1.08
GGGUCGUAACCCCAUAAUCGCGUGGAUAUGGCACGCAAGUUUCUACCGGGCACCGUAAAUGUCCGACUGGAGCCGUUCGGGCGGCUAUAAACAGACCUCAGGCCCGAAGCGUGGCGGCACCUGCCGCCGGUGGUAAAAAAGAUCGGAAGAGCACACGUCU	1.04
GGGUCGUAACACCAUAAUCGCGUGGAUAUGGCACGCAAGUUUCUACCGGGCACCGUAAAUGUCCGACUGGAGCCGUUCGGGCGGCUAUAAACAGACCUCAGGCCCGAAGCGUGGCGGCACCUGCCGCCGGUGGUAAAAAAGAUCGGAAGAGCACACGUCU	1.33
GGGUCGUAACAGGAUAAUCGCGUGGAUAUGGCACGCAAGUUUCUACCGGGCACCGUAAAUGUCCGACUGGAGCCGUUCGGGCGGCUAUAAACAGACCUCAGGCCCGAAGCGUGGCGGCACCUGCCGCCGGUGGUAAAAAAGAUCGGAAGAGCACACGUCU	1.12
GGGUCGUAACAGUAUAAUCGCGUGGAUAUGGCACGCAAGUUUCUACCGGGCACCGUAAAUGUCCGACUGGAGCCGUUCGGGCGGCUAUAAACAGACCUCAGGCCCGAAGCGUGGCGGCACCUGCCGCCGGUGGUAAAAAAGAUCGGAAGAGCACACGUCU	1.22
GGGUCGUAACAGAAUAAUCGCGUGGAUAUGGCACGCAAGUUUCUACCGGGCACCGUAAAUGUCCGACUGGAGCCGUUCGGGCGGCUAUAAACAGACCUCAGGCCCGAAGCGUGGCGGCACCUGCCGCCGGUGGUAAAAAAGAUCGGAAGAGCACACGUCU	1.19

Reference: the RNAGym collection of RNA variant scans (doi:10.1021/acssynbio.7b00057)
